Literature values, collected in US20200222508A1 (Arecor Limited, priority 2016, published 2020).

conditions: in vivo

Substance	circulating half-life
Lixisenatide: analogue of exendin-4, proline omitted at position 38, six lysine residues added at C-terminal, SEQ ID NO: 8	2 to 4 h
Albiglutide: GLP-1 dimer fused to human albumin, SEQ ID NO: 5	96 to 170 h
Dulaglutide: GLP-1 analogue consisting of GLP-1(7-37) covalently linked to an Fc fragment of human IgG4, SEQ ID NO: 6	approximately 5 days
